Where a chain is given by its changes, count along the chain named. Values belong to the molecule of their own block, whether it stands above or below them.
Assays:
[1] = target: D374Y PCSK9 binding to LDLR (Homo sapiens, UniProt Q8NBP7, D374Y); assay: Large scale receptor ligand blocking screen and functional classification of ABPs; conditions: functional assays of the screening
Protocol: To screen for the antibodies that block PCSK9 binding to LDLR an assay was developed using the D374Y PCSK9 mutant. […] The following protocol was employed in the receptor ligand blocking screen: Costar 3702 medium binding 384 well plates (Corning Life Sciences) were employed in the screen. The plates were coated with goat anti-LDLR (R&D Cat #AF2148) at 2 μg/ml in 1×PBS/0.05% Azide at a volume of 40 μl/well. The plates were incubated at 4° C. overnight. The plates were then washed using a Titertek plate washer (Titertek, Huntsville, Ala.). A 3-cycle wash was performed. The plates were blocked with 90 μl of 1×PBS/1% milk and incubated approximately 30 minutes at room temperature. The plates were then washed using the Titertek plate washer. A 3-cycle wash was performed. The capture sample was LDLR (R&D, Cat #2148LD/CF), and was added at 0.4 μg/ml in 1×PBS/1% milk/10 mM Ca^2+ at a volume of 40 μl/well. The plates were then incubated for 1 hour and 10 minutes at room temperature. Contemporaneously, 20 ng/ml of biotinylated human D374Y PCSK9 was incubated with 15 micro liters of hybridoma exhaust supernatant in Nunc polypropylene plates and the exhaust supernatant concentration was diluted 1:5. The plates were then pre-incubated for about 1 hour and 30 minutes at room temperature. Next, the plates were washed using the Titertek plate washer operated using a 3-cycle wash. 50 μl/well of the pre-incubated mixture was transferred onto the LDLR coated ELISA plates and incubated for 1 hour at room temperature. To detect LDLR-bound b-PCSK9, 40 μl/well streptavidin HRP at 500 ng/ml in assay diluent was added to the plates. The plates were incubated for 1 hour at room temperature. The plates were again washed using a Titertek plate washer. A 3-cycle wash was performed. Finally, 40 μl/well of One-step TMB (Neogen, Lexington, Ky.) was added to the plate and was quenched with 40 μl/well of 1N hydrochloric acid after 30 minutes at room temperature. OD's were read immediately at 450 nm using a Titertek plate reader.
The receptor ligand assay was then repeated using the mutant enzyme on the 384 member subset of neutralizers identified in the first large scale receptor ligand inhibition assay. The same protocol was employed in the screen of the 384 member blocker subset assay as was done in the large scale receptor ligand blocking screen.
Limiting dilution was used to isolate a manageable number of clones from each line. […] The isolated clones were each expanded in 50-100 ml of hybridoma media and allowed to grow to exhaustion, (i.e., less than about 10% cell viability). The concentration and potency of the antibodies to PCSK9 in the supernatants of those cultures were determined by ELISA and by in vitro functional testing, as described herein.

[2] = system: wild type (WT) mice (C57BL/6); assay: Serum cholesterol and HDL in 13 day study; type: in vivo, mouse; conditions: 10 mg/kg, repeated 13 day study (FIG. 10C)
From the text: Male WT mice (C57BL/6 strain, aged 9-10 weeks, 17-27 g) obtained from Jackson Laboratory (Bar Harbor, Me.) were fed a normal chow (Harland-Teklad, Diet 2918) through out the duration of the experiment. […] Naïve mice were also set aside as naïve control group.
Animals were sacrificed and livers were extracted and prepared as in Example 11.
The HDL levels for the animals in Example 13 were also examined.

[3] = target: D374Y human PCSK9 (HepG2 cells) (Homo sapiens, UniProt Q8NBP7, D374Y); assay: Cell LDL uptake assay (Example 10); type: cell-based; conditions: 2 μg/ml D374Y human PCSK9, HepG2 cells
Protocol: Human HepG2 cells were seeded in black, clear bottom 96-well plates (Costar) at a concentration of 5×10^5 cells per well in DMEM medium (Mediatech, Inc) supplemented with 10% FBS and incubated at 37° C. (5% CO2) overnight. To form the PCSK9 and antibody complex, 2 μg/ml of D374Y human PCSK9 was incubated with various concentrations of antibody diluted in uptake buffer (DMEM with 1% FBS) or uptake buffer alone (control) for 1 hour at room temperature. After washing the cells with PBS, the D374Y PCSK9/antibody mixture was transferred to the cells, followed by LDL-BODIPY (Invitrogen) diluted in uptake buffer at a final concentration of 6 μg/ml. After incubation for 3 hours at 37° C. (5% CO2), cells were washed thoroughly with PBS and the cell fluorescence signal was detected by Safire™ (TECAN) at 480-520 nm (excitation) and 520-600 nm (emission).

D374Y PCSK9/LDLR binding = D374Y PCSK9/LDLR binding (Homo sapiens, UniProt Q8NBP7, D374Y); assay: Blocking D374Y PCSK9/LDLR binding (Example 9); conditions: 20 ng/ml biotinylated D374Y PCSK9
Protocol: Clear 384 well plates (Costar) were coated with 2 micrograms/ml of goat anti-LDL receptor antibody (R&D Systems) diluted in buffer A (100 mM sodium cacodylate, pH 7.4). Plates were washed thoroughly with buffer A and then blocked for 2 hours with buffer B (1% milk in buffer A). After washing, plates were incubated for 1.5 hours with 0.4 micrograms/ml of LDL receptor (R&D Systems) diluted in buffer C (buffer B supplemented with 10 mM CaCl2). […] The LDL receptor containing plates were washed and the biotinylated D374Y PCSK9/antibody mixture was transferred to them and incubated for 1 hour at room temperature. Binding of the biotinylated D374Y to the LDL receptor was detected by incubation with streptavidin-HRP (Biosource) at 500 ng/ml in buffer C followed by TMB substrate (KPL). The signal was quenched with 1N HCl and the absorbance read at 450 nm.

B1: 3B6: anti-PCSK9 antibody; light/heavy variable region SEQ ID NO 46/60 (antibody, listed as Homo sapiens, V domains shown)
VH: QVQLVQSGAEVKKPGASVKVSCKASGYTFTSYGISWVRQAPGQGLEWMGWISTYNGNTNYAQKVQGRVTMTTDTSTSTAYMELRSLRSDDTAVYYCARGYTRDYWGQGTLVTVSS
VL: QPVLTQPLFASASLGASVTLTCTLSSGYSSYEVDWYQQRPGKGPRFVMRVDTGGIVGSKGEGIPDRFSVLGSGLNRYLTIKNIQEEDESDYHCGADHGSGTNFVVVFGGGTKLTVL
- neutralizing ability (blocking PCSK9/LDLR) [1]: weak neutralizers

B3: 13B5: anti-PCSK9 antibody; light/heavy variable region SEQ ID NO 42/69 (antibody, listed as Homo sapiens, V domains shown)
VH: EVQLLESGGGLVQPGGSLRLSCAASGFTFSSYAMSWVRQAPGKGLEWVSTISGSGGRTYYADSVKGRFTISRDNSKNTLYLQMNSLRAEDTAVYYCAKEVGSPFDYWGQGTLVTVSS
VL: QSVLTQPPSVSAAPGQKVTISCSGSNSNIGNNYVSWYQQLPGTAPKLLIYDNNKRPSGIPDRFSGSNSGTSATLGITGLQTGDEADYYCGTWDSSLSAVVFGGGTKLTVL
- neutralizing ability (blocking PCSK9/LDLR) [1]: non-neutralizing

B4: 16F12: anti-PCSK9 antibody; light/heavy variable region SEQ ID NO 35/79 (antibody, listed as Homo sapiens, V domains shown)
VH: QVHLVESGGGVVQPGRSLRLSCAASGFTFNSFGMHWVRQAPGKGLEWVALIWSDGSDEYYADSVKGRFTISRDNSKNTLYLQMNSLRAEDTAVYYCARAIAALYYYYGMDVWGQGTTVTVSS
VL: B3 VL with N26S, Y33F, N52Y, N67K, V99Y, G103T, K106R, L107V
- total serum cholesterol after a single dose [2]: significant and substantial decreases in total serum cholesterol

Other lines, results leading:

- neutralizing ability (blocking PCSK9/LDLR) [1]: neutralizing
B2: 25A7: anti-PCSK9 antibody; light/heavy variable region SEQ ID NO 15/58; 25A7.3 referred to as 25A7 (antibody, listed as Homo sapiens, V domains shown)
VH: B1 VH with T30P, T53A, Q62E, V64L, L83V, Y94F, T101V, R102M, Y104V, L110T
VL: QSALTQPASVSGSPGQSITISCTGTSSDVGRYNSVSWYQHHPGKAPKVMIYEVSNRPSGVSTRFSGSKSGNTASLTISGLQAEDEADYYCSSYTSSSVVFGGGTKLTVL

- IC50 [3]: 13.3 nM
- IC50 (D374Y PCSK9/LDLR binding): 0.17 nM
B5: 21B12 IgG2: human 21B12 IgG2 antibody produced from transfected cells (antibody)
heavy: QVQLVQSGAEVKKPGASVKVSCKASGYTLTSYGISWVRQAPGQGLEWMGWVSFYNGNTNYAQKLQGRGTMTTDPSTSTAYMELRSLRSDDTAVYYCARGYGMDVWGQGTTVTVSSASTKGPSVFPLAPCSRSTSESTAALGCLVKDYFPEPVTVSWNSGALTSGVHTFPAVLQSSGLYSLSSVVTVPSSNFGTQTYTCNVDHKPSNTKVDKTVERKCCVECPPCPAPPVAGPSVFLFPPKPKDTLMISRTPEVTCVVVDVSHEDPEVQFNWYVDGVEVHNAKTKPREEQFNSTFRVVSVLTVVHQDWLNGKEYKCKVSNKGLPAPIEKTISKTKGQPREPQVYTLPPSREEMTKNQVSLTCLVKGFYPSDIAVEWESNGQPENNYKTTPPMLDSDGSFFLYSKLTVDKSRWQQGNVFSCSVMHEALHNHYTQKSLSLSPGK
light: QSALTQPASVSGSPGQSITISCTGTSSDVGGYNSVSWYQQHPGKAPKLMIYEVSNRPSGVSNRFSGSKSGNTASLTISGLQAEDEADYYCNSYTSTSMVFGGGTKLTVLQPKAAPSVTLFPPSSEELQANKATLVCLISDFYPGAVTVAWKADSSPVKAGVETTTPSKQSNNKYAASSYLSLTPEQWKSHRSYSCQVTHEGSTVEKTVAPTECS

- neutralizing ability (blocking PCSK9/LDLR) [1]: non-neutralizing
B6: 13H1: anti-PCSK9 antibody; light/heavy variable region SEQ ID NO 28/91 (antibody, listed as Homo sapiens, V domains shown)
VH: QVQLQQSGPGLVKPSQTLSLTCAISGDSVSSNSAAWNWIRQSPSRGLEWLGRTYYRSKWYKNYSVSVKSRITINPDTSKNQFSLQLNSVTPGDTAVYYCARGGPTAAFDYWGQGTLVTVSS
VL: LSALTQPASVSGSPGQSITISCTGTSSDVGNYNLVSWYQQYSGKAPKLMIYEVSKRPSGVSNRFSGSKSGNTASLTISGLQAEDEADYYCCSYAGSSTLVFGGGTKLTVL

- neutralizing ability (blocking PCSK9/LDLR) [1]: non-neutralizing
B7: 27B2: anti-PCSK9 antibody; light/heavy variable region SEQ ID NO 13/87 (antibody, listed as Homo sapiens, V domains shown)
VH: QVQLQESGPGLVKPSQTLSLTCTVSGGSISSGGYYWSWIRQHPGKGLEWIGYIYNSGSTYYNPSLKSRVTISVDTSKNQFSLKLSSVTAADTAVYYCAREDTAMVPYFDYWGQGTLVTVSS
VL: QSVLTQPPSVSGAPGQRVTISCTGSSSNIGAHYDVHWYQQVPGTAPKLLIYGNTYRPSGVPDRFSGSKSGTSASLAITGLQAEDEADYYCQSYDNSLSGVVFGGGTKLTVL
